Source: patent US20240043483A1, “TAU BIOSENSOR CELL LINES” (THE BOARD OF REGENTS OF THE UNIVERSITY OF TEXAS SYSTEM, priority 2020, published 2024)

How the values were obtained:
[1] = target: tau RD(P301S)-mClover3 fusion (tau segment 246 to 378 with the P301S mutation, linker …, mClover3) (UniProt P10636); experiment: cell-based or functional assay
[2] = target: tau RD(P301S)-mCerulean3 fusion (tau segment 246 to 378 with the P301S mutation, linker …, mCerulean3) (UniProt P10636); experiment: cell-based or functional assay
Sequence of tau RD(P301S)-mCerulean3 fusion (tau segment 246 to 378 with the P301S mutation, linker …, mCerulean3) (P10636 other isoform, or with tags, fused parts or gaps P301S P301S P301S P301S): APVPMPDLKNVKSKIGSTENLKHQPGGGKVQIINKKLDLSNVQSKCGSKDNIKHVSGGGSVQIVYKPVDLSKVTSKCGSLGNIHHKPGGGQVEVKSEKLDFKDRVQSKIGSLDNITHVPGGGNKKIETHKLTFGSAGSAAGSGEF

Sequence of tau RD(P301S)-mClover3 fusion (tau segment 246 to 378 with the P301S mutation, linker …, mClover3) (P10636 other isoform, or with tags, fused parts or gaps P301S P301S P301S P301S): as above

recombinant tau fibrils made of wild-type full-length (2N4R) tau (from UniProt P10636 2-441)
seeding activity (FRET positivity) after TauA immunopurification of fibrils spiked into 1 ml control CSF [1]: 100 attomolar
seeding activity (FRET positivity) after TauA immunopurification of fibrils spiked into 1 ml control CSF [2]: 100 attomolar
